Reference: PMC9228142, “Going Retro, Going Viral: Experiences and Lessons in Drug Discovery from COVID-19”

Target: nsp12 (RdRp catalytic subunit);nsp7;nsp8 (SARS-CoV-2;SARS-CoV-2;SARS-CoV-2, UniProt P0DTD1;P0DTD1;P0DTD1 4393-5324;3860-3942;3943-4140, ||)
Test: EMSA
Settings: protein: recombinant;recombinant;recombinant; tags: untagged (SUMO fusion cleaved, Ni2+-NTA and SEC purified);;; copies: 1;1;2; label: 5'-Cyanine 5.5

B1: GA1 RNA scaffold (structured_RNA)
RNA: AAAAGAAAAGACGCGUAGUUUUCUACGCG
  binding result: binds
